From the supplement of paper PMC10567573 come the findings set out here.

± gives the standard deviation.

A short description of the series: protein stability index of a GFP-peptide fusion (GPS, HEK-293T) (PSI 1-6); higher = more stable. The settings on record: c terminus: a fixed tail appended.
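Further: 24-mer peptide tiles fused after GFP, lentivirally expressed, FACS-sorted into six equal bins by GFP/DsRed ratio, decoded by Illumina sequencing, PSI is the read-weighted mean bin number.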

For the sequence DRMARPSGRSGHNTRGTGSSSSGV [CSNK1G3], the protein stability index by setting is: (treatment: DMSO) 4.87 ± 0.13; (treatment: MLN4924 1 uM, 8 h) 5.03 ± 0.098.
For DRVLQWERIDCQGIPPSSKDKLGV [KLHDC2] the same measures were 4.14 ± 0.36 and 3.99 ± 0.07.
In the same order, the values of DSEQNGQVTCSILAYLPFKLEKSI [PCDHGA10] are 2.16 ± 0.24 and 2.27 ± 0.41.
In the same order, the values of DVEFLPVYHPSPEESRDPTLYANN [LPCAT4] are 4.88 ± 0.32 and 4.64 ± 0.054.
As for DVKARLEGEIATYRHLLEGEDCKL [KRT36], the protein stability index reads like this: (treatment: DMSO) 4.22 ± 0.21; (treatment: MLN4924 1 uM, 8 h) 4.29 ± 0.075.
For DVLAHQVPNAKKLRRKEQLWEKLA [NOP53] the same measures were 2.84 ± 0.36 and 3.09 ± 0.29.
For DVNNLDPDLRSLFSRAGISEAQLT [WAS] the same measures were 3.07 ± 0.41 and 3.34 ± 0.48.
For EAAEAETAKDNGEAEDQEEKEDAE [SRPK2] the same measures were 5.55 ± 0.4 and 5.73 ± 0.29.
With EAAQVVPDGLGLDEAREEEGDREV [TRIB3], the protein stability index (treatment: DMSO) is 5.63 ± 0.15 and the protein stability index (treatment: MLN4924 1 uM, 8 h) came out at 5.43 ± 0.45.
In the same order, the values of EAEREFILNLKKKECKDRGFEYDG [NLN] are 4.58 ± 0.41 and 4.91 ± 0.32.
In the same order, the values of EAFWAEWKDLTLSTRPEEGCSLHE [TCAP] are 3.98 ± 0.18 and 4 ± 0.2.
In the case of EAGFHTVEAVAYAPKKELINIKGI [RAD51], the protein stability index (treatment: DMSO) worked out at 3.01 ± 0.054 and the protein stability index (treatment: MLN4924 1 uM, 8 h) was determined as 3.19 ± 0.29.
Consider EAGIKVHDVRLNGSAAGHVLVKDN [TENT5C], for which the protein stability index (treatment: DMSO) was 4.42 ± 0.17 and the protein stability index (treatment: MLN4924 1 uM, 8 h) is 4.61 ± 0.15.
In the same order, the values of EALQNFFSLACSLMGPSRMSLFSL [M1AP] are 2.89 ± 0.75 and 3.09 ± 0.74.
For EANEEFALRVQQLVAKELGQTGTR [AUP1] the same measures were 3.87 ± 0.35 and 3.99 ± 0.45.
For EAPEAELSQAPAEGPDLVPAALGS [HES6] the same measures were 5.5 ± 0.31 and 5.41 ± 0.35.
With EAQEEFLRVLGSMCQRLRSMQYNG [DFFB], the protein stability index stood at 2.27 ± 0.21 (treatment: DMSO) and 2.27 ± 0.21 (treatment: MLN4924 1 uM, 8 h).
Turning to EASSSPPEGSQDRNTSWGVVQEPP [TLE6], the protein stability index came to 5.12 ± 0.28 (treatment: DMSO) and 5.2 ± 0.18 (treatment: MLN4924 1 uM, 8 h).
For EDEDEDKEEEEEDCSEEYLERQLQ [TAF7L] the same measures were 5.636 ± 0.049 and 5.76 ± 0.18.
EDEEEEEGGEGEKEGEGEVGGEAV [TRIM55]: the protein stability index was determined as 5.74 ± 0.24 (treatment: DMSO) and 5.7 ± 0.27 (treatment: MLN4924 1 uM, 8 h).
In the same order, the values of EDGHRTSTSAVPNLFVPLNTNPKE [ADD1] are 4.89 ± 0.24 and 5.07 ± 0.11.
In the same order, the values of EDHFPLLFSEASECMLLVFGIDVK [MAGEA10] are 2.73 ± 0.84 and 2.7 ± 0.77.
For EEEDEILPRKDYESLDYDRCINDP [CLCN6] the same measures were 5.52 ± 0.17 and 5.48 ± 0.29.
Regarding EEEEAEDEEVVATAGDRLTEFRKG [IRX6], the protein stability index reads like this: (treatment: DMSO) 5.48 ± 0.34; (treatment: MLN4924 1 uM, 8 h) 5.6 ± 0.28.
EEEEEEEEEEDDLSELPPLEDMGQ [FKBP8] gave a protein stability index (treatment: DMSO) of 5.37 ± 0.3 and a protein stability index (treatment: MLN4924 1 uM, 8 h) of 5.63 ± 0.12.
In the same order, the values of EEKQASLWVQGDIFRSKLKNRPSS [CDC14A] are 3.89 ± 0.049 and 4 ± 0.25.
In the same order, the values of EEKSFWEMEKSFREEEKTFWKKYR [CCDC70] are 4.18 ± 0.68 and 4.232 ± 0.013.
With EEVDEDGSGTIDFEEFLVMMVRQM [TNNC2], the protein stability index stood at 3.52 ± 0.15 (treatment: DMSO) and 3.79 ± 0.44 (treatment: MLN4924 1 uM, 8 h).
Take EEVDQMFQFASIDVAGNLDYKALS [MYL5]: the protein stability index reads like this: (treatment: DMSO) 4.27 ± 0.3; (treatment: MLN4924 1 uM, 8 h) 4.39 ± 0.27.
In the same order, the values of EEVSSTVHIETFTTRHGEVGSALH [C10orf62] are 4.43 ± 0.36 and 4.57 ± 0.19.
In the same order, the values of EGFHNYHHSFPYDYSASEYRWHIN [SCD] are 2.37 ± 0.18 and 2.48 ± 0.18.
In the same order, the values of EGNLAETENRYCVQLSQIQGLIGS [KRT17] are 3.63 ± 0.15 and 3.94 ± 0.12.
Regarding EGRGGRPGSTRPHRSACSSAAVRG [HAGHL], the protein stability index is, setting by setting: (treatment: DMSO) 4.52 ± 0.17; (treatment: MLN4924 1 uM, 8 h) 4.58 ± 0.19.
For EGYWLPGDEISIKKKNTNKQEMGT [ZMYND11] the same measures were 4.7 ± 0.17 and 4.58 ± 0.084.
In the same order, the values of EIIRVILKLYEQWKNFDERKEMAT [CCNC] are 2.09 ± 0.52 and 2.38 ± 0.3.
For EILEQQQQERNDTNFHGVCMFCNE [ZNF277] the same measures were 3.73 ± 0.37 and 3.77 ± 0.43.
Take EIPWTSLTRKGLVRVVFFPLFSNW [PHTF1]: the protein stability index was 3.09 ± 0.89 (treatment: DMSO) and 2.84 ± 0.23 (treatment: MLN4924 1 uM, 8 h).
For EIRDWRGPQLEGEKDWGLEGYVWR [ZSWIM9] the same measures were 3 ± 0.56 and 3.29 ± 0.57.
In the same order, the values of EITEELPSSQLMPVKKQLQGASWE [ZNF396] are 4.09 ± 0.14 and 4.38 ± 0.22.
On to EKAFIAHFQDNLHSVNRDLNELER [MED27], for which the protein stability index is 3.85 ± 0.23 (treatment: DMSO) and 4.09 ± 0.2 (treatment: MLN4924 1 uM, 8 h).
For EKDERQRTTKPMAQRSAHCSRPSG [CSNK1G1] the same measures were 5.12 ± 0.11 and 4.98 ± 0.29.
For EKEKAEIEAKEACDWLRATGFPQY [DLC1] the same measures were 4.02 ± 0.24 and 4.09 ± 0.24.
In the same order, the values of EKKLTVRQDLEDRYAEHVAATQAL [C22orf31] are 4.55 ± 0.12 and 4.53 ± 0.21.
For the sequence EKLATDTSTFEATSEGTLELQQRN [ZNF232], the protein stability index is, setting by setting: (treatment: DMSO) 5.29 ± 0.22; (treatment: MLN4924 1 uM, 8 h) 5.41 ± 0.14.
For EKNLLLQNQVDELERKFRCQQEQL [LRRC45], the protein stability index is 4.27 ± 0.31 (treatment: DMSO) and 4.34 ± 0.23 (treatment: MLN4924 1 uM, 8 h).
EKVKKRPGGRPEVIYNYVQRPFIR [BTBD10]: the protein stability index worked out at 2.9 ± 0.31 (treatment: DMSO) and 2.73 ± 0.63 (treatment: MLN4924 1 uM, 8 h).
For ELDNPMQQKWTKPARAGSEVEWTE [C2CD2L] the same measures were 4.1 ± 0.36 and 4.25 ± 0.21.
In the same order, the values of ELDRWLYHLEKQTALLGGPRRCHS [PLEKHN1] are 2.24 ± 0.19 and 2.17 ± 0.39.
In the same order, the values of ELERQRRLLGSVQQDLERSLQDAS [PBXIP1] are 4.62 ± 0.26 and 4.46 ± 0.28.
As for ELLDLKAGGFSIRNQKGEQVFRLA [MYORG], the protein stability index stood at 2.32 ± 0.33 (treatment: DMSO) and 2.24 ± 0.48 (treatment: MLN4924 1 uM, 8 h).
In the same order, the values of ELLGVHPGASTEEVKRAFFSKSKE [DNAJC4] are 3.8 ± 0.19 and 4.08 ± 0.42.
For ELPNGSVKEAPAPTPTSLEVSSPP [PDZK1] the same measures were 5.04 ± 0.12 and 5.09 ± 0.17.
